Reference: US20220193237A1 (Bristol-Myers Squibb, published 2022)

T1: monomeric human CTLA-4 (human, UniProt P16410 36-161, limits assumed)
T1 construct: Soluble monomeric analyte in SPR; also called huCTLA-4
T1 sequence: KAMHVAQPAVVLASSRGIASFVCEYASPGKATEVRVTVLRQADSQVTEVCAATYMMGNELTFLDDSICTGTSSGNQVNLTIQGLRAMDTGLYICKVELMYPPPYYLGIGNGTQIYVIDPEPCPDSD

T2: monomeric cyno CTLA-4 (cynomolgus macaque (Macaca fascicularis), UniProt G7PL88 36-161)
T2 construct: also called CTLA-4 from the cynomolgus macaque Macaca fascicularis
T2 sequence: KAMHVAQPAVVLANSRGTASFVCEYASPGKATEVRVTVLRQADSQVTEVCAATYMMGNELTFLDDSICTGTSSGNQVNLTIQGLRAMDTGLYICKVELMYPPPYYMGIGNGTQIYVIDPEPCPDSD

B1: ipi.105, non-fucosylated IgG1 (antibody, V domains shown)
VH: QVQLVESGGGVVQPGRSLRLSCAASGFTFSHYTMHWVRQAPGKGLEWVTFISYDGHNKYYADSVKGRFTISRDNSKNTLYLQMNSLRAEDTAIYYCARTGWLGPFDYWGQGTLVTVSS
VL: EIVLTQSPGTLSLSPGERATLSCRASQEVGESELAWYQQKPGQAPRLLIYGAFSRATGIPDRFSGSGSGTDFTLTISRLEPEDFAVYYCQQYGSSPWTFGQGTKVEIKR
modifications: non-fucosylated N-linked glycan
notes: Non-fucosylated full-length human IgG1; also called Ipi.105 IgG1-NF
B2: ipi.17 Fab (Fab, V domains shown)
VH: QVQLVESGGGVVQPGRSLRLSCAASGFTFSSYTMHWVRQAPGKGLEWVTFISYDGNNKYYADSVKGRFTISRDNSKNTLYLQMNSLRAEDTAIYYCARTGWLGPFDYWGQGTLVTVSS
VL: not shown
notes: Tested as monovalent Fab; also called S28E
B3: ipi.24 Fab (Fab, V domains shown)
VH: QVQLVESGGGVVQPGRSLRLSCAASGFTFSSYTMHWVRQAPGKGLEWVTFISYDGNNKYYADSVKGRFTISRDNSKNTLYLQMNSLRAEDTAIYYCARTGWLGPFDYWGQGTLVTVSS
VL: not shown
notes: Tested as monovalent Fab
B4: ipi.26 Fab (Fab, V domains shown)
VH: QVQLVESGGGVVQPGRSLRLSCAASGFTFSSYTMHWVRQAPGKGLEWVTFISYDGNNKYYADSVKGRFTISRDNSKNTLYLQMNSLRAEDTAIYYCARTGWLGPFDYWGQGTLVTVSS
VL: not shown
notes: Tested as monovalent Fab
B5: ipi.101 Fab (Fab, V domains shown)
VH: QVQLVESGGGVVQPGRSLRLSCAASGFTFSHYTMHWVRQAPGKGLEWVTFISYDGHNKYYADSVKGRFTISRDNSKNTLYLQMNSLRAEDTAIYYCARTGWLGPFDYWGQGTLVTVSS
VL: not shown
notes: Tested as monovalent Fab
B6: ipi.105 Fab (Fab, V domains shown)
VH: QVQLVESGGGVVQPGRSLRLSCAASGFTFSHYTMHWVRQAPGKGLEWVTFISYDGHNKYYADSVKGRFTISRDNSKNTLYLQMNSLRAEDTAIYYCARTGWLGPFDYWGQGTLVTVSS
VL: EIVLTQSPGTLSLSPGERATLSCRASQEVGESELAWYQQKPGQAPRLLIYGAFSRATGIPDRFSGSGSGTDFTLTISRLEPEDFAVYYCQQYGSSPWTFGQGTKVEIKR
notes: Tested as monovalent Fab
B7: ipi.23 Fab (Fab, V domains shown)
VH: QVQLVESGGGVVQPGRSLRLSCAASGFTFSSYTMHWVRQAPGKGLEWVTFISYDGNNKYYADSVKGRFTISRDNSKNTLYLQMNSLRAEDTAIYYCARTGWLGPFDYWGQGTLVTVSS
VL: not shown
notes: Tested as monovalent Fab

How the values were obtained:
[1] = biological target: T3, human CTLA-4 on 58 α-β-CTLA-4/CD3 ζ cells (human; mouse (mCD3ζ)); experiment: flow cytometry, non-fucosylated IgG1 on 58αβ-CTLA4/mCD3ζ cells, pH 6.2
T3 construct: also called 58αβ-hCTLA4/mCD3ζ cells; 58αβ-CTLA4/mCD3ζ cells
Method: (§1) Antibodies were titrated from 100 μg/mL at a 1:4 dilution across 12 points in pH-specific buffers and incubated for 30-60 minutes. Buffers contained HBSS, 2% FBS^HI, 0.02% sodium azide, 2 mM EDTA, and sodium phosphate buffer (pH 5.4). Sodium phosphate buffer was added until desired pH was reached (7.2, 6.7, 6.2). Approximately 3e5 cells/well were tested for each cell line. […] Detection was done with a monovalent anti-hKappa secondary nanobody conjugated to Alexa647 and used at a dilution of 1:2000. Cells were fixed with BD Fix Solution I for 30 minutes prior to resuspension in pH-specific buffers and reading on the cytometer (BD Fortessa).

[2] = biological target: T3, human CTLA-4 on 58 α-β-CTLA-4/CD3 ζ …; experiment: cell-based or functional assay
[3] = biological target: T3, human CTLA-4 on 58 α-β-CTLA-4/CD3 ζ …; experiment: flow cytometry, non-fucosylated IgG1 on 58αβ-CTLA4/mCD3ζ cells, pH 6.7
Method: as §1

[4] = biological target: T3, human CTLA-4 on 58 α-β-CTLA-4/CD3 ζ …; experiment: flow cytometry, non-fucosylated IgG1 on 58αβ-CTLA4/mCD3ζ cells, pH 7.2
Method: as §1

[5] = biological target: T3, human CTLA-4 on 58 α-β-CTLA-4/CD3 ζ …; experiment: cell-based or functional assay; remark: listed apart in the source
[6] = biological target: T1, monomeric human CTLA-4; experiment: SPR, captured Fab, pH 6.0
Method: (§2) See Example 3. Antibodies were tested as monovalent Fab fragments to simplify analysis.
(§3) Monomeric human CTLA-4 was flowed as analyte with up to 2 μM top concentration. Between cycles, the capture surface was regenerated with 75 mM phosphoric acid. Experiments were run on a BIACORE® T200 instrument at 37° C. Running buffers were HEPES buffered saline for pH 7.4 experiments and Bis-Tris buffered saline for lower pH experiments. […] Double referenced sensorgrams were fitted to a 1:1 Langmuir binding model with mass transport to determine equilibrium dissociation constants (KD), as well as association (kₐ) and dissociation (kd) rate constants where appropriate.

[7] = biological target: T1, monomeric human CTLA-4; experiment: SPR, captured Fab, pH 6.0 vs 7.4
Method: (§4) Binding of selected variants to human CTLA-4 was determined essentially as described in Example 3. […] Nomenclature and sequences for these antibodies is provided at Tables 6 and 7, and in the sequence listing as summarized at Table 8.
as §3

[8] = biological target: T1, monomeric human CTLA-4; experiment: SPR, captured Fab, pH 7.4
Method: as §2, §3

[9] = biological target: T1, monomeric human CTLA-4; experiment: SPR, captured Fab, pH 6.0 vs 7.4; remark: listed apart in the source
Method: as §2, §3

[10] = biological target: T1, monomeric human CTLA-4; experiment: SPR, captured Fab, first experiment of Table 3
Method: as §2, §3

[11] = biological target: T1, monomeric human CTLA-4; experiment: SPR, captured Fab, pH 7.4; remark: listed apart in the source
Method: as §4, §3

[12] = biological target: T1, monomeric human CTLA-4; experiment: SPR, captured Fab, pH 6.0; remark: listed apart in the source
Method: as §4, §3

[13] = biological target: T1, monomeric human CTLA-4; experiment: SPR, captured Fab, second experiment of Table 3
Method: as §2, §3

[14] = biological target: T1, monomeric human CTLA-4; experiment: SPR, captured Fab, pH 6.0, second experiment
Method: as §2, §3

[15] = biological target: T1, monomeric human CTLA-4; experiment: SPR, captured Fab, pH 6.0 vs 7.4, second experiment
Method: as §2, §3

[16] = biological target: T1, monomeric human CTLA-4; experiment: SPR, captured Fab, pH 7.4, second experiment
Method: as §2, §3

[17] = biological target: T2, monomeric cyno CTLA-4; experiment: SPR, Fab, monomeric cyno CTLA-4 as analyte; koff (s^-1, linear axis 0 to 0.3) plotted against pH
Method: The pH dependence of binding of selected antibodies of the present invention to human CTLA-4 and cyno CTLA-4 was measured by surface plasmon resonance (SPR) spectroscopy, essentially as described in Example 3. Briefly, antibodies were studied as monovalent Fab fragments. Anti-human kappa polyclonal capture antibody (Southern Biotech, Ala. USA) was immobilized on a ethylenediamine-blocked CM4 sensor chip in a Biacore T200 surface plasmon resonance system. Fab fragments of selected antibodies of the present invention were then captured on one flow cell each. […] Running buffer was 20 mM BisTris, 150 mM NaCl, 0.05% Tween-20, 1 g/L BSA, at a pH ranging from 5.5 to 7.4 in 0.1-0.2 pH unit intervals (12 total). The surface was regenerated with 1/200 H₃PO₄ between cycles. […] Where required, the Rₘₐₓ was fixed by calculating expected binding based on capture level and apparent activity from other fits for the same Fab.

[18] = biological target: T3, human CTLA-4 on 58 α-β-CTLA-4/CD3 ζ …; experiment: flow cytometry (APC mean FI), Fab on 58αβ-CTLA4/mCD3ζ cells, pH 6.2
Method: as §1
The experimental protocol was the same as used to obtain the data of FIGS. 16A-C.

Row | Binder | KD 7.4/6 (APBP) [7] | Kd [11] | Kd [12] | kon [12] | t1/2 [12] | ratio of KD (7.4/6.0) normalized to the ratio of ipilimumab [13] | Kd [14] | koff [14] | kon [14] | KD 7.4/6 (APBP) [15] | ka 6/7.4 [15] | kd 7.4/6 [15] | Kd [16] | koff [16] | kon [16] | further results
1 | B1 |  |  |  |  |  |  |  |  |  |  |  |  |  |  |  | Cmax (MFI) [1]: 107000 MFI; EC50 [1]: 2.6 nM; IC50 (read off the curve), mIL-2 secretion, 58αβ-hCTLA/mCD3ζ:rhB7-1 blocking assay, 18 h, pH 6.8 [2]: ~2 nM; Cmax (MFI) [3]: 110000 MFI; EC50 [3]: 3.45 nM; Cmax (MFI) [4]: 107000 MFI; EC50 [4]: 3.94 nM; IC50 (read off the curve), mIL-2 secretion, 58αβ-hCTLA/mCD3ζ:rhB7-1 blocking assay, 18 h, pH 7.0 [5]: ~4 nM
2 | B2 | 1.3 | 19 nM | 14 nM | 1e+06 M⁻¹ s⁻¹ | 46 s |  |  |  |  |  |  |  |  |  |  | Kd [6]: 14 nM; koff [6]: 0.015 s⁻¹; kon [6]: 1e+06 M⁻¹ s⁻¹; ka 6/7.4 [7]: 1.2; t1/2 6/7.4 [7]: 1.1; Kd [8]: 19 nM; koff [8]: 0.016 s⁻¹; kon [8]: 850000 M⁻¹ s⁻¹; KD 7.4/6 (APBP) [9]: 1.4; ka 6/7.4 [9]: 1.2; kd 7.4/6 [9]: 1.1; ratio of KD (7.4/6.0) normalized to the ratio of ipilimumab [10]: 1.4; kon [11]: 850000 M⁻¹ s⁻¹; t1/2 [11]: 43 s
3 | B3 |  |  |  |  |  | 4.1 | 7.2 nM | 0.006 s⁻¹ | 830000 M⁻¹ s⁻¹ | 3.3 | 2 | 1.7 | 24 nM | 0.0099 s⁻¹ | 420000 M⁻¹ s⁻¹ | 
4 | B4 |  |  |  |  |  | 4.3 | 8.9 nM | 0.007 s⁻¹ | 790000 M⁻¹ s⁻¹ | 3.4 | 2 | 1.7 | 30 nM | 0.012 s⁻¹ | 410000 M⁻¹ s⁻¹ | 
5 | B5 | 31 | 45 nM | 1.5 nM | 1.2e+06 M⁻¹ s⁻¹ | 385 s |  |  |  |  |  |  |  |  |  |  | ka 6/7.4 [7]: 2.5; t1/2 6/7.4 [7]: 12; binding result [17]: binds; kon [11]: 490000 M⁻¹ s⁻¹; t1/2 [11]: 32 s; EC50 (read off the curve) [18]: ~0.07 µg/mL
6 | B6 | 76 | 390 nM | 2.5 nM | 1.3e+06 M⁻¹ s⁻¹ | 217 s |  |  |  |  |  |  |  |  |  |  | binding result [17]: binds; EC50 (read off the curve) [18]: ~0.2 µg/mL
7 | B7 |  |  |  |  |  | 5.1 | 6.5 nM | 0.0062 s⁻¹ | 960000 M⁻¹ s⁻¹ | 4.1 | 2 | 2.1 | 27 nM | 0.013 s⁻¹ | 490000 M⁻¹ s⁻¹ | 
